Among the data in the RNAGym collection of RNA variant scans (doi:10.7554/elife.80360) are self-cleavage values, retold here.

The chains are these.
B1: Hairpin Ribozyme (parent)
chain: GUCCUCUUUCACGUGCGCGUGAAAGAGAGAAGUGAACCAGAGAAACACACGUUGUGGUAUAUUACCUGGUA

In this data set the parent is B1. Nature of the data set: self-cleavage, relative activity (ratio to wild type); higher = more cleavage; co-transcriptional.
For GUCCUCUUUCACGUGCGCGUGAAAGAGAGAAGUGAACCCGAGAAACACACGUUGGGGUAUAUUACCUGGUA, the self-cleavage amounted to 0.205.
Consider GUCCUCUUUCACGUGCGCGUGAAAGAGAGAAGUGAACCGGAGAAAAACACGUUGUGGUAUAUUACCUGGUA, for which the self-cleavage came out at 0.0818.
As for GUCCUCUUUCACGUGCGCGUGAAAGAGAGAAGUGAACCGGAGAAAUACACGUUGUGGUAUAUUACCUGGUA, the self-cleavage was 0.119.
Take GUCCUCUUUCACGUGCGCGUGAAAGAGAGAAGUGAACCGGAGAAAGACACGUUGUGGUAUAUUACCUGGUA: the self-cleavage was found to be 0.113.
Take GUCCUCUUUCACGUGCGCGUGAAAGAGAGAAGUGAACCUGAGGAACACACGUUGUGGUAUAUUACCUGGUA: the self-cleavage turned out to be 0.103.
Consider GUCCUCUUUCACGUGCGCGUGAAAGAGAGAAGUGAACCUGAGUAACACACGUUGUGGUAUAUUACCUGGUA, for which the self-cleavage stood at 0.223.
In the case of GUCCUCUUUCACGUGCGCGUGAAAGAGAGAAGUGAACCCGAGAAACAAACGUUGUGGUAUAUUACCUGGUA, the self-cleavage stood at 0.171.
As for GUCCUCUUUCACGUGCGCGUGAAAGAGAGAAGUGAACCCGAGAAACACACGUUGUGGUAUGUUACCUGGUA, the self-cleavage was determined as 0.131.
For the variant GUCCUCUUUCACGUGCGCGUGAAAGAGAGAAGUGAACCGGAGAAACACACGUUGUCGUAUAUUACCUGGUA, the self-cleavage turned out to be 0.117.
For GUCCUCUUUCACGUGCGCGUGAAAGAGAGAAGUGAACCGGAGAAACACACGUUGUGGUAGAUUACCUGGUA the value was 0.21.
For GUCCUCUUUCACGUGCGCGUGAAAGAGAGAAGUGAACCCGAGAAACACACGUUGUGAUAUAUUACCUGGUA, the self-cleavage turned out to be 0.215.
On to GUCCUCUUUCACGUGCGCGUGAAAGAGAGAAGUGAACCGGAGGAACACACGUUGUGGUAUAUUACCUGGUA, for which the self-cleavage was 0.0922.
As to GUCCUCUUUCACGUGCGCGUGAAAGAGAGAAGUGAACCUGAGAAACACACGUUGUGGUCUAUUACCUGGUA, the self-cleavage was found to be 0.172.
In the case of GUCCUCUUUCACGUGCGCGUGAAAGAGAGAAGUGAACCUGAGAAACACACGUUGUGGUUUAUUACCUGGUA, the self-cleavage is 0.184.
Regarding GUCCUCUUUCACGUGCGCGUGAAAGAGAGAAGUGAACCUGAGAAACACACGUUGUGGUGUAUUACCUGGUA, the self-cleavage amounted to 0.101.
Turning to GUCCUCUUUCACGUGCGCGUGAAAGAGAGAAGUGAACCGGAGAAACACCCGUUGUGGUAUAUUACCUGGUA, the self-cleavage came out at 0.176.
GUCCUCUUUCACGUGCGCGUGAAAGAGAGAAGUGAACCCUAGAAACACACGUUGUGGUAUAUUACCUGGUA: the self-cleavage amounted to 0.0957.
Consider GUCCUCUUUCACGUGCGCGUGAAAGAGAGAAGUGAACCCAAGAAACACACGUUGUGGUAUAUUACCUGGUA, for which the self-cleavage turned out to be 0.112.
For the variant GUCCUCUUUCACGUGCGCGUGAAAGAGAGAAGUGAACCCGAGAAACACACGUUGUGGAAUAUUACCUGGUA, the self-cleavage came out at 0.231.
GUCCUCUUUCACGUGCGCGUGAAAGAGAGAAGUGAACCCGAGAAACACACGUUGUGGGAUAUUACCUGGUA: the self-cleavage was determined as 0.315.
As for GUCCUCUUUCACGUGCGCGUGAAAGAGAGAAGUGAACCCGAGAAACACACGUUGUGGUAUAUUACCCGGUA, the self-cleavage worked out at 0.149.
On to GUCCUCUUUCACGUGCGCGUGAAAGAGAGAAGUGAACCGGAGAAACACACGUUGUGGUAUAUCACCUGGUA, for which the self-cleavage was determined as 0.158.
Turning to GUCCUCUUUCACGUGCGCGUGAAAGAGAGAAGUGAACCGGAGAAACACACGUUGUGGUAUAUGACCUGGUA, the self-cleavage came to 0.147.
For GUCCUCUUUCACGUGCGCGUGAAAGAGAGAAGUGAACCGGAGAAACACACGUUGUGGUAUAUUAACUGGUA the value was 0.442.
For GUCCUCUUUCACGUGCGCGUGAAAGAGAGAAGUGAACCCGAGAAACACACGUUGUGGUAUAUUAACUGGUA the value was 0.233.
In the case of GUCCUCUUUCACGUGCGCGUGAAAGAGAGAAGUGAACCGGAGAAACACACGUUGUGUUAUAUUACCUGGUA, the self-cleavage was 0.0985.
For GUCCUCUUUCACGUGCGCGUGAAAGAGAGAAGUGAACCGGAGAAACACACGUUGUGCUAUAUUACCUGGUA the value was 0.105.
With GUCCUCUUUCACGUGCGCGUGAAAGAGAGAAGUGAACCGGAGAAACACACGUUGUGAUAUAUUACCUGGUA, the self-cleavage came to 0.129.
In the case of GUCCUCUUUCACGUGCGCGUGAAAGAGAGAAGUGAACCUGAGAAACACACGUUGUGGUAUAUUCCCUGGUA, the self-cleavage was determined as 0.177.
As for GUCCUCUUUCACGUGCGCGUGAAAGAGAGAAGUGAACCCGAGAAACACACGUGGUGGUAUAUUACCUGGUA, the figure is 0.207; as for GUCCUCUUUCACGUGCGCGUGAAAGAGAGAAGUGAACCGGAGAAACACACAUUGUGGUAUAUUACCUGGUA, 0.396.
Consider GUCCUCUUUCACGUGCGCGUGAAAGAGAGAAGUGAACCCGAGAAACACACGUUGUGGUAUAUUGCCUGGUA, for which the self-cleavage was found to be 0.0974.
As for GUCCUCUUUCACGUGCGCGUGAAAGAGAGAAGUGAACCCGAGAAACACACGUUGUGGUAUAUUUCCUGGUA, the figure is 0.16; as for GUCCUCUUUCACGUGCGCGUGAAAGAGAGAAGUGAACCUGUGAAACACACGUUGUGGUAUAUUACCUGGUA, 0.458; as for GUCCUCUUUCACGUGCGCGUGAAAGAGAGAAGUGAACCUGCGAAACACACGUUGUGGUAUAUUACCUGGUA, 0.3.
On to GUCCUCUUUCACGUGCGCGUGAAAGAGAGAAGUGAACCGGAGAAACACACGUUGUGGUAUAUUUCCUGGUA, for which the self-cleavage worked out at 0.123.
As for GUCCUCUUUCACGUGCGCGUGAAAGAGAGAAGUGAACCGGAGAAACACACGUUGUGGUAUAUUCCCUGGUA, the self-cleavage stood at 0.174.
For GUCCUCUUUCACGUGCGCGUGAAAGAGAGAAGUGAACCGGAGAAACACACGUUGUGGUAUAUUACCGGGUA, the self-cleavage was found to be 0.147.
For the variant GUCCUCUUUCACGUGCGCGUGAAAGAGAGAAGUGAACCGGAGAAACACACGUUGUGGUAUAUUACCCGGUA, the self-cleavage is 0.544.
Take GUCCUCUUUCACGUGCGCGUGAAAGAGAGAAGUGAACCCGAGAAACACACGUUGUGGUAAAUUACCUGGUA: the self-cleavage came out at 0.359.
With GUCCUCUUUCACGUGCGCGUGAAAGAGAGAAGUGAACCCGAGAAACACACGUUGUGGUAGAUUACCUGGUA, the self-cleavage was found to be 0.33.
For the variant GUCCUCUUUCACGUGCGCGUGAAAGAGAGAAGUGAACCCGAGAAACACACGUUGUGGUACAUUACCUGGUA, the self-cleavage was determined as 0.784.
Regarding GUCCUCUUUCACGUGCGCGUGAAAGAGAGAAGUGAACCGGAGAAACACACGUUGUGGUAUAUUACCUGAUA, the self-cleavage was found to be 0.112.
For GUCCUCUUUCACGUGCGCGUGAAAGAGAGAAGUGAACCGGAGAAACACACGUUGUGGUAUAUUACCUGCUA, the self-cleavage is 0.101.
As to GUCCUCUUUCACGUGCGCGUGAAAGAGAGAAGUGAACCUGAGAAACACACGUUGUGGUAUAUUACCUGGUA, the self-cleavage worked out at 0.424.
Take GUCCUCUUUCACGUGCGCGUGAAAGAGAGAAGUGAACCGGAGAAACACACGUUGUGGUAUAUUACCUGGUA: the self-cleavage is 0.299.
As for GUCCUCUUUCACGUGCGCGUGAAAGAGAGAAGUGAACCGGAGAAUCACACGUUGUGGUAUAUUACCUGGUA, the figure is 0.111; as for GUCCUCUUUCACGUGCGCGUGAAAGAGAGAAGUGAACCUGAGAAACCCACGUUGUGGUAUAUUACCUGGUA, 0.168; as for GUCCUCUUUCACGUGCGCGUGAAAGAGAGAAGUGAACCGGAGAAACACACGUUGUGGUAUACUACCUGGUA, 0.145.
For the variant GUCCUCUUUCACGUGCGCGUGAAAGAGAGAAGUGAACCGGAGAAACACACGUUGUGGUAUAAUACCUGGUA, the self-cleavage is 0.12.
In the case of GUCCUCUUUCACGUGCGCGUGAAAGAGAGAAGUGAACCCGAGAAACACACGGUGUGGUAUAUUACCUGGUA, the self-cleavage stood at 0.267.
On to GUCCUCUUUCACGUGCGCGUGAAAGAGAGAAGUGAACCGGAGAAACACAGGUUGUGGUAUAUUACCUGGUA, for which the self-cleavage came out at 0.111.
In the case of GUCCUCUUUCACGUGCGCGUGAAAGAGAGAAGUGAACCGGAGAAACACACGUGGUGGUAUAUUACCUGGUA, the self-cleavage stood at 0.207.
Consider GUCCUCUUUCACGUGCGCGUGAAAGAGAGAAGUGAACCGGAGAAACACACGUCGUGGUAUAUUACCUGGUA, for which the self-cleavage worked out at 0.273.
In the case of GUCCUCUUUCACGUGCGCGUGAAAGAGAGAAGUGAACCUGAGAGACACACGUUGUGGUAUAUUACCUGGUA, the self-cleavage was found to be 0.119.
Turning to GUCCUCUUUCACGUGCGCGUGAAAGAGAGAAGUGAACCCGAGAAAAACACGUUGUGGUAUAUUACCUGGUA, the self-cleavage was found to be 0.191.
With GUCCUCUUUCACGUGCGCGUGAAAGAGAGAAGUGAACCCGAGAAAUACACGUUGUGGUAUAUUACCUGGUA, the self-cleavage was determined as 0.103.
For the variant GUCCUCUUUCACGUGCGCGUGAAAGAGAGAAGUGAACCCGAGAAAGACACGUUGUGGUAUAUUACCUGGUA, the self-cleavage was determined as 0.13.
Regarding GUCCUCUUUCACGUGCGCGUGAAAGAGAGAAGUGAACCGGAGAAACAUACGUUGUGGUAUAUUACCUGGUA, the self-cleavage amounted to 0.0998.
Regarding GUCCUCUUUCACGUGCGCGUGAAAGAGAGAAGUGAACCGGAGAAACACACGAUGUGGUAUAUUACCUGGUA, the self-cleavage came to 0.23.
GUCCUCUUUCACGUGCGCGUGAAAGAGAGAAGUGAACCGGAGAAACACACGUUGUGGUAUAUUACCUGGUG: the self-cleavage was found to be 0.222.
Consider GUCCUCUUUCACGUGCGCGUGAAAGAGAGAAGUGAACCCGAGAAACACACAUUGUGGUAUAUUACCUGGUA, for which the self-cleavage came out at 0.751.
As for GUCCUCUUUCACGUGCGCGUGAAAGAGAGAAGUGAACCCGAGAAACACACGUUGUGGUAUAUUACCUGGUG, the self-cleavage was 0.248.
For GUCCUCUUUCACGUGCGCGUGAAAGAGAGAAGUGAACCCGAGAAACACACGUUGUGGUAUAUUACCUGGUU, the self-cleavage was 0.136.
GUCCUCUUUCACGUGCGCGUGAAAGAGAGAAGUGAACCGGAGAAACACACGUUGUGGUAUAUUACCUGGCA: the self-cleavage was 0.372.
As for GUCCUCUUUCACGUGCGCGUGAAAGAGAGAAGUGAACCGGAGAAACACACGUUGUGGUAUAUUACCUGGAA, the self-cleavage worked out at 0.2.
Take GUCCUCUUUCACGUGCGCGUGAAAGAGAGAAGUGAACCGGAGAAACACACGUUGUGGUAUAUUACCUGGGA: the self-cleavage worked out at 0.332.
In the case of GUCCUCUUUCACGUGCGCGUGAAAGAGAGAAGUGAACCCGAGAAACACAGGUUGUGGUAUAUUACCUGGUA, the self-cleavage came to 0.0993.
Turning to GUCCUCUUUCACGUGCGCGUGAAAGAGAGAAGUGAACCCGAGAAACACAAGUUGUGGUAUAUUACCUGGUA, the self-cleavage stood at 0.165.
For GUCCUCUUUCACGUGCGCGUGAAAGAGAGAAGUGAACCCGAGAAACACACGUUGUGGUAUAUUACCUUGUA the value was 0.229; for GUCCUCUUUCACGUGCGCGUGAAAGAGAGAAGUGAACCCGAGAAACACACGUUGUGGUAUAUUACCUAGUA, 0.215.
In the case of GUCCUCUUUCACGUGCGCGUGAAAGAGAGAAGUGAACCGGAGAGACACACGUUGUGGUAUAUUACCUGGUA, the self-cleavage is 0.129.
For the variant GUCCUCUUUCACGUGCGCGUGAAAGAGAGAAGUGAACCGGAGAAACCCACGUUGUGGUAUAUUACCUGGUA, the self-cleavage was 0.166.
On to GUCCUCUUUCACGUGCGCGUGAAAGAGAGAAGUGAACCCGAGAAACACACGUUUUGGUAUAUUACCUGGUA, for which the self-cleavage worked out at 0.103.
For GUCCUCUUUCACGUGCGCGUGAAAGAGAGAAGUGAACCCGAGAAACACACGUUGUGGUAUAUGACCUGGUA, the self-cleavage turned out to be 0.122.
As to GUCCUCUUUCACGUGCGCGUGAAAGAGAGAAGUGAACCCGAGAAACACACGUUGUGGUAUAUUACCUGGCA, the self-cleavage worked out at 0.247.
